Molecular target: Drosophila melanogaster Dicer-2 (dmDcr-2), OSF tag removed (Drosophila melanogaster, UniProt A1ZAW0 1-1722)
Experiment: cross-linking

Chain of Drosophila melanogaster Dicer-2 (dmDcr-2), OSF tag removed (A1ZAW0 whole entry): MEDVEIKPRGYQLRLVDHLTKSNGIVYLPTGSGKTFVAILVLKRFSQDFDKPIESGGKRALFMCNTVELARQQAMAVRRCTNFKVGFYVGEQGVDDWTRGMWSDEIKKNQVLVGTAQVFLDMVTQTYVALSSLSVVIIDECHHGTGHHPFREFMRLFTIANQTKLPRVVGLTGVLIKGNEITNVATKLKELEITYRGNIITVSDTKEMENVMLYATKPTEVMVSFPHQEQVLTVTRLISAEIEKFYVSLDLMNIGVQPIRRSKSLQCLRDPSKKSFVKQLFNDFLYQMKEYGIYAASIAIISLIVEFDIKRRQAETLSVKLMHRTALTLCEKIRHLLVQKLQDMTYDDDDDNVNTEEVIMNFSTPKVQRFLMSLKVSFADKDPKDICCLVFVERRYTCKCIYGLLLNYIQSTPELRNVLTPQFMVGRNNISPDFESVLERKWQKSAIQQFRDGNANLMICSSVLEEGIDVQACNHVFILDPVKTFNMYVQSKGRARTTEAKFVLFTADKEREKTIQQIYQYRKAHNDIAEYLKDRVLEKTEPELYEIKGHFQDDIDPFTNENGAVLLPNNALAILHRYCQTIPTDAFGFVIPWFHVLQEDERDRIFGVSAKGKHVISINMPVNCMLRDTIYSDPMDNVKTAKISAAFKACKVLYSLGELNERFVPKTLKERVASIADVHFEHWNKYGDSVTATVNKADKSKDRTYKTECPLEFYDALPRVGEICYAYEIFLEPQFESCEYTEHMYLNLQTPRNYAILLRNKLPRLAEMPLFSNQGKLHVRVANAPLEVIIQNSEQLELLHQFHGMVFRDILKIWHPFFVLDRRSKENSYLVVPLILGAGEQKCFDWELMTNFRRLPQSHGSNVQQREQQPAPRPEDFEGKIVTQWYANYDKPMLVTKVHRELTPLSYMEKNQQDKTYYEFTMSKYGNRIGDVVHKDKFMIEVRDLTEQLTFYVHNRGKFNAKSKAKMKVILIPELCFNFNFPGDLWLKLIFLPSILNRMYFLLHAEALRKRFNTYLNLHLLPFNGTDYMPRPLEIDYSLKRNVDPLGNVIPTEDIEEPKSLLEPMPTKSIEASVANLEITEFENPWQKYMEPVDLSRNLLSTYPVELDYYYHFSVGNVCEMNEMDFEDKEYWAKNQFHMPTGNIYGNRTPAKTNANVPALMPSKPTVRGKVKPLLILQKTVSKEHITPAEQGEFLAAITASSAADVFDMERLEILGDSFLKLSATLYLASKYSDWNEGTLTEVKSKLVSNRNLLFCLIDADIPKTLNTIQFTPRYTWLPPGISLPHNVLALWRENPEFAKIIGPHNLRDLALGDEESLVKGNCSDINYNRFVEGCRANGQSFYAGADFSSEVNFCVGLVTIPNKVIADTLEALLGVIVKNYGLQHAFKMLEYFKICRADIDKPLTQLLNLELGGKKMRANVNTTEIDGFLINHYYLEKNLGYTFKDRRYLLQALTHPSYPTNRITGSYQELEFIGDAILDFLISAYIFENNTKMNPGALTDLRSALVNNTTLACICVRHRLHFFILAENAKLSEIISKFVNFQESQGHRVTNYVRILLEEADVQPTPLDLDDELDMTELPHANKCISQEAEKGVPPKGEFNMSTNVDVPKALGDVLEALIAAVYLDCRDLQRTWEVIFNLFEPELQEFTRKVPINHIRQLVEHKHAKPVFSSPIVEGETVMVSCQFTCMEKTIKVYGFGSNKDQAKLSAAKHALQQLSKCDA

stoichiometry N: 1
B1: Loquacious-PD (Loqs-PD), OSF tag removed (natural protein, Drosophila melanogaster, UniProt Q9VJY9-4 1-359, looked up)
chain: MDQENFHGSSLPQQLQNLHIQPQQASPNPVQTGFAPRRHYNNLVGLGNGNAVSGSPVKGAPLGQRHVKLKKEKISAQVAQLSQPGQLQLSDVGDPALAGGSGLQGGVGLMGVILPSDEALKFVSETDANGLAMKTPVSILQELLSRRGITPGYELVQIEGAIHEPTFRFRVSFKDKDTPFTAMGAGRSKKEAKHAAARALIDKLIGAQLPESPSSSAGPSVTGLTVAGSGGDGNANATGGGDASDKTVGNPIGWLQEMCMQRRWPPPSYETETEVGLPHERLFTIACSILNYREMGKGKSKKIAKRLAAHRMWMRLQETPIDSGKISDSICGELEGEVSIIQDIDRYEQVSKDFEFIKI
modifications: mono-phosphorylated (intact-mass ESI/MS shows a phospho and a dephosphorylated species); putative site assigned to the motif 213-SPSSS-217

From article PMC5658042 (Methods (San Diego, Calif.), 2017)
